In the supplement of paper PMC10567573:
± gives the standard deviation.

Assay: protein stability index of a GFP-peptide fusion (GPS, HEK-293T) (PSI 1-6); higher = more stable
[1] = treatment: DMSO, c terminus: a fixed tail appended
[2] = treatment: MLN4924 1 uM, 8 h, c terminus: a fixed tail appended
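Note: 24-mer peptide tiles fused after GFP, lentivirally expressed, FACS-sorted into six equal bins by GFP/DsRed ratio, decoded by Illumina sequencing, PSI is the read-weighted mean bin number.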

Sequence | protein stability index [1] | protein stability index [2] | protein stability index (treatment: DMSO, c terminus: native) | protein stability index (treatment: MLN4924 1 uM, 8 h, c terminus: native)
KESRAQTLQNGRRHIHHLGNQLQL [BRF1] | 3.55 ± 0.15 | 3.63 ± 0.31 |  | 
KESSPSGSKSQRYSGAYGASVSDE [CHCHD3] | 5.31 ± 0.5 | 4.99 ± 0.12 |  | 
KFLAKVNGSDPRSFPLWYEEALKD [MAGEA10] | 2.62 ± 0.39 | 3.06 ± 0.4 |  | 
KHSTIFDVGENLTVPDEFTVEERQ [SLC25A25] | 5.07 ± 0.22 | 4.98 ± 0.22 |  | 
KIIQLGLTFMNEQGEYPPGTSTWQ [CNOT7] | 2.23 ± 0.2 | 2.19 ± 0.18 |  | 
KILEVVGRYSVHNAGISFSVKKQG [MLH1] | 2.19 ± 0.93 | 1.91 ± 0.51 |  | 
KILRSMSRKVTTNKLLLSIIILLE [VTI1B] | 2.48 ± 0.53 | 2.32 ± 0.42 |  | 
KIRRGQFCIPEHISPKARCLIRSL [TRIB1] | 2.29 ± 0.48 | 2.29 ± 0.4 |  | 
KKAYDYFQAKKIPIVSSLADPLDT [PDZK1] | 3.64 ± 0.23 | 3.88 ± 0.35 |  | 
KKEEPEPETEAVSSSQEIPTMPQP [ZMYND11] | 5.45 ± 0.47 | 5.55 ± 0.23 |  | 
KKKSILMKQLQQQQHSDKTSLQGL [ISL2] | 3.86 ± 0.2 | 4.04 ± 0.27 |  | 
KKLTGGANWQPKVAPATWSAGVPP [SNAP91] | 3.27 ± 0.18 | 3.34 ± 0.14 |  | 
KLQDVFEMRFAKMPDEPVEAPALP [BRD3] | 3.49 ± 0.23 | 3.62 ± 0.34 |  | 
KMAAFHGAGLKRYLLTVMAAAAKA [ADAMTS4] | 2.43 ± 0.21 | 2.58 ± 0.5 |  | 
KMGLQERSETFLEVWGNALLRPPV [DNAAF3] | 2.52 ± 0.55 | 2.49 ± 0.34 |  | 
KMNPKLKTLLAIGGWNFSTQKFTD [CHIT1] | 2.37 ± 0.11 | 2.3 ± 0.39 |  | 
KMREFTKTIKRPFGVKYNPYTRSI [TPH1] | 2.25 ± 0.21 | 2.31 ± 0.17 |  | 
KNWWVRGILTLAMIAFFFIIIYLG [CDS2] | 3.07 ± 0.36 | 2.85 ± 0.52 |  | 
KPDKAVSIIECDMNVDFDAPLGYK [UFD1] | 3.94 ± 0.34 | 4.21 ± 0.2 |  | 
KPDSVGLPPCAVRNLQDLARIYIR [PCMTD1] | 2.94 ± 0.085 | 2.85 ± 0.1 |  | 
KPEDTAEDLTAKRKRMKMDKTCSK [FAM9B] | 5.3 ± 0.2 | 5.43 ± 0.11 |  | 
KPENISLRNKLRELCVKLMFLHPV [SMG5] | 2.9 ± 0.52 | 3.06 ± 0.34 |  | 
KPGFLAPRDLPKHTPLISKSQSLR [RASAL3] | 3.61 ± 0.2 | 3.8 ± 0.47 |  | 

Sequence | protein stability index [1] | protein stability index [2] | protein stability index (treatment: DMSO, c terminus: native) | protein stability index (treatment: MLN4924 1 uM, 8 h, c terminus: native)
KPHRCHNCGKSFSRLTALTLHQRT [ZNF449] | 2.46 ± 0.096 | 2.78 ± 0.76 |  | 
KPIHTTILNPHVHVIGEDAACIAY [CAMK2B] | 2.77 ± 0.26 | 2.98 ± 0.18 |  | 
KPPETSVPVVTPTASTAPPVPATA [SNAP91] | 5.34 ± 0.35 | 5.37 ± 0.18 |  | 
KQGELPREVRRAQARLLNPSATRA [NOP53] | 4.42 ± 0.46 | 4.47 ± 0.19 |  | 
KQGSMNFRFIPVLFPNAKKEHVPT [TRAF3IP2] | 2.41 ± 0.41 | 2.48 ± 0.49 |  | 
KRLREEEAARLFKQIVSAVAHCHQ [TRIB1] | 2.4 ± 0.36 | 2.4 ± 2 |  | 
KRPYAKELETVDFKDKLEETKGQI [SERPINB5] | 5.12 ± 0.21 | 5.23 ± 0.14 |  | 
KRRKDSEEEAASPEGKRVPKRLRC [FANCE] | 5.08 ± 0.3 | 5.12 ± 0.26 |  | 
KSFILDFMLRYLYSQKESGHSNWL [ATL3] | 2.88 ± 0.33 | 3.07 ± 0.48 |  | 
KSQSLRSVRRSESWARPRPDEERP [RASAL3] | 4.89 ± 0.36 | 4.99 ± 0.12 |  | 
KTKYILLMDIVPADDHRYKFADNK [TBX5] | 2.08 ± 0.22 | 2.3 ± 0.42 |  | 
KTNLDGMITVQLPEVPANENIKGY [PTPRD] | 4.12 ± 0.4 | 4.24 ± 0.28 |  | 
KTYQETPEIDMFLNVATFLDPRYK [ZBED1] | 2.38 ± 0.36 | 2.56 ± 0.32 |  | 
KVIDDTNITRLQLETEIEALKEEL [KRT18] | 4.2 ± 0.18 | 4.36 ± 0.23 |  | 
KVQKPLLQAPFLPPKAPPPVIKIP [RHOBTB1] | 3.17 ± 0.11 | 3.35 ± 0.13 |  | 
KYEAQNIVNSTEESDDAFDTVTIP [IQUB] | 5.27 ± 0.22 | 5.09 ± 0.45 |  | 
KYEQAFESSQKYKEGKYIIELNHM [YPEL3] | 2.71 ± 0.1 | 2.87 ± 0.2 |  | 
LALMIQSSGNTVLLLILCMQHSFP [TMEM192] | 2.9 ± 0.073 | 3.1 ± 0.48 |  | 
LAPEVIQSKGHGRAVDWWALGILI [PRKX] | 2.61 ± 0.86 | 2.3 ± 0.62 |  | 
LAPTFSNLLLQPTTNPHTSASHRP [SMG5] | 3.55 ± 0.15 | 3.61 ± 0.26 |  | 
LARPECLFLLLGHGASPGLRDGGG [ANKRD9] | 2.29 ± 0.54 | 2.19 ± 0.23 |  | 
LASIFQLAMWTTALLHQAETLQPS [TMEM175] | 3.13 ± 0.29 | 3.13 ± 0.75 |  | 
LCDKLPPATALGTASYPSDGCGAD [NOL4L] | 4.98 ± 0.19 | 4.92 ± 0.23 |  | 

Sequence | protein stability index [1] | protein stability index [2] | protein stability index (treatment: DMSO, c terminus: native) | protein stability index (treatment: MLN4924 1 uM, 8 h, c terminus: native)
LCLLVAWSIVGMAVVKGIQSSGKV [SLC6A17] | 2.76 ± 0.49 | 2.84 ± 0.21 |  | 
LDLKRQYDRVAQLDQLLHYRKKSA [CHGB] | 3.23 ± 0.26 | 3.63 ± 0.51 |  | 
LDLSKNKLQQLPADFGRLVNLQHL [LRRC59] | 2.54 ± 0.33 | 2.63 ± 0.26 |  | 
LDQPVSAPPSPRDISMEIDSPENM [CCDC6] | 5.47 ± 0.2 | 5.23 ± 0.41 |  | 
LEAEVKDTTRVENLIKSENYGKIL [R3HDM1] | 4.3 ± 0.59 | 4.43 ± 0.42 |  | 
LEFKLKSNDNEERLQVVKLLAKMF [PDS5B] | 2.12 ± 0.38 | 2.29 ± 0.28 |  | 
LEIDSGVITLDPQTASRSLVLSED [TRIM15] | 4.69 ± 0.19 | 4.74 ± 0.32 |  | 
LEPPEEEIIEGNTKSHIMLVQRQM [NECAB1] | 4.64 ± 0.16 | 4.8 ± 0.24 |  | 
LEQMIKENQEKTEDQYEENSHLTS [ETS2] | 5.7 ± 0.16 | 5.51 ± 0.14 |  | 
LESIPSLSQSPEPGRRGDPDTAPP [RTN2] | 5.49 ± 0.12 | 5.535 ± 0.045 |  | 
LESVNHCHLNGIVHRDLKPENLLL [CAMK2D] | 2.85 ± 0.34 | 2.98 ± 0.41 |  | 
LFLLLGHGASPGLRDGGGLTPLEL [ANKRD9] | 2.29 ± 0.32 | 2.36 ± 0.59 |  | 
LFQSPLFAKAGDTLSGTCLLIANK [CARM1] | 2.56 ± 0.76 | 2.81 ± 0.47 |  | 
LFVNSHPGIDRPGMLCSFRIPGAW [DCAF4] | 2.38 ± 0.59 | 2.24 ± 0.43 |  | 
LGDEICCWSFYGQGRKIAEVCCTS [KCTD13] | 2.15 ± 0.1 | 2.1 ± 0.29 |  | 
LGDPCPMLESPGAPCRSAQASVSC [HDAC6] | 3.94 ± 0.39 | 4.06 ± 0.18 |  | 
LGDRLNVEVDTAPTVDLNQVLNET [KRT34] | 4.87 ± 0.15 | 4.96 ± 0.29 |  | 
LGGAIDFGAAYVLEQASSHIGNST [ATL3] | 3.03 ± 0.23 | 3.2 ± 0.15 |  | 
LGLLDDYLEVAKHFKPHGFSSDKA [ATF4] | 2.89 ± 0.19 | 3.07 ± 0.91 |  | 
LGVGLGVEISRRLRHSNPRADPLV [SPNS1] | 3.082 ± 0.029 | 2.96 ± 0.22 |  | 
LIDEKVLILHGGVSDITDLELLDK [PPEF2] | 3.14 ± 1.5 | 3.71 ± 0.55 |  | 
LIFHRHPVAQSTDAIRGKVGYTRG [SPSB1] | 2.33 ± 0.23 | 2.41 ± 0.21 |  | 
LIHPELNEGLMKWENRHEGVFKFL [ELF3] | 2.36 ± 0.15 | 2.48 ± 0.19 |  | 

Sequence | protein stability index [1] | protein stability index [2] | protein stability index (treatment: DMSO, c terminus: native) | protein stability index (treatment: MLN4924 1 uM, 8 h, c terminus: native)
LINSNVSMVDLTSVTLEDVTPKKS [FAN1] | 3.34 ± 0.25 | 3.55 ± 0.17 |  | 
LIQPINHTTLQCLAARVIVNHRIY [FEM1C] | 2.39 ± 0.3 | 2.38 ± 0.43 |  | 
LKASEPGLFAVGEHTGEVRTARAL [PCDHGA10] | 4.06 ± 0.35 | 4.21 ± 0.16 |  | 
LKEDGMETVPWFPKKISDLDHCAN [TPH1] | 4.11 ± 0.25 | 4.09 ± 0.21 |  | 
LKKLAEENPDLQEAYIAKQKRLKS [GDAP1] | 4.38 ± 0.22 | 4.6 ± 0.28 |  | 
LKLALDMEIATYRKLLESEECRMS [KRT71] | 2.79 ± 0.46 | 2.88 ± 0.24 |  | 
LKLWEIGKIIGGMWRDLTDEEKQE [SMARCE1] | 2.67 ± 0.55 | 3.44 ± 0.43 |  | 
LKNSNYESIQQTARSIAEQAHELA [PPTC7] | 3.91 ± 0.54 | 3.78 ± 0.26 |  | 
LKYVRGLLQTEPQNNQAKELERLI [FIS1] | 2.89 ± 0.29 | 3.02 ± 0.29 |  | 
LLAAREDLSKIIRTSSGTSREKTA [FAM98B] | 4.05 ± 0.15 | 4.23 ± 0.24 |  | 
LLDLDPEVECLKANTNEVLWAVVA [GOLPH3] | 1.94 ± 0.21 | 2.22 ± 0.41 |  | 
LLESPQLATLAEDVTAALAKQGL [MAP2] |  |  | 4.66 ± 0.21 | 4.53 ± 0.2
LLFCCQCVDVVFYNPDLKKVVEAH [RHOBTB3] | 2.4 ± 0.14 | 3.01 ± 0.52 |  | 
LLFSGGLSESETGPMEEVERQVLP [PBXIP1] | 4.06 ± 0.27 | 4.18 ± 0.38 |  | 
LLGPATGCLLDDGLEGLFEDIDTS [SERTAD1] | 4.27 ± 0.097 | 4.32 ± 0.37 |  | 
LLKHSNIVRLHDSISEEGFHYLVF [CAMK2B] | 2.68 ± 0.46 | 2.42 ± 0.37 |  | 
LLLILCMQHSFPEPGRLYLDLILA [TMEM192] | 3.3 ± 0.48 | 3.11 ± 0.32 |  | 
LLLLLFWGVVSHSFPATLETQEQD [MMP1] | 2.97 ± 0.58 | 2.76 ± 0.82 |  | 
LLLSFWKETDPLTFNFISSLKAIC [PLD5] | 3.47 ± 0.96 | 2.44 ± 0.12 |  | 
LLNPEKYKAKSRSPGSPVGEGTGS [ADD1] | 4.52 ± 0.26 | 4.55 ± 0.21 |  | 
